# Laboratory results from article PMC9912261.
# Legend:
# [1] = test system: Lys1 (position 1, -----K-----); test: NMR; details: ambient (SI general details say 1H NMR spectra were recorded at ambient temperature); none stated; pH adjusted with HCl/NaOH; free small peptide derivative in solution
# [2] = test system: Lys1 (position 1, -----KG----); test: NMR; details: ambient (SI general details say 1H NMR spectra were recorded at ambient temperature); none stated; pH adjusted with HCl/NaOH; free small peptide derivative in solution
Substance,pKa [1],pKa [2]
Ac-Lys-CN (N-acetyl-lysine nitrile) (synthetic),approximately 10.4,
Ac-Lys-OH (N-alpha-acetyl-lysine) (synthetic),approximately 10.8,
Ac-Lys-Gly-SH (N-acetyl-lysyl-glycine thioacid) (synthetic),,approximately 10.8
Ac-Lys-SH (N-acetyl-lysine thioacid) (synthetic),approximately 10.8,
